For data set [1], the system named is p145. The note with it: second animal study.
In data set [2] the test system is J8. The class given is in vivo, C57BL/6 mice. The conditions noted are these: first animal study (epitope arrangement); 50 μg s.c., days 0, 21, 28, 35; listed as Conjugate 3.
The subject of data set [3] is B1. The conditions noted are these: 30 μg with CFA, single s.c. immunization.
Data set [4] has as its system RBD. The note with it: 30 μg with CFA, single s.c. immunization; serum day 14.
Data set [5] can be described thus: Dynamic Light Scattering, Example 5. Type of data set: physicochemical. The conditions noted are these: for Polydispersity index (PDI): DLS; for Particle size (nm) DLS: size as measured by intensity, 1-4 1 mg/mL, 5-11 2 mg/mL in PBS. How it is done: Dynamic Light Scattering. Individual compounds 1-4 (1 mg/mL in PBS) and 5-11 (2 mg/mL in PBS) were analyzed using DLS to measure particle size (zeta intensity) and PDI. The samples were treated with ultrasonication for 30 min, then transferred into disposable cuvettes. Measurement were taken at 25° C. and […] light scattering. DLS measurements were taken using a Zetasizer Nano ZP instrument (Malvern Instrument, UK) with Malvern Zetasizer Analyser 6.2 software.

Data set [6] can be described thus: Transmission Electron Microscopy, Example 5. The class given is physicochemical. The conditions noted are these: negative staining; NP = nanoparticles, CLANs = chain like aggregates of nanoparticles. From the text: Transmission Electron Microscopy. Particle-imaging was captured using a JEM-1010 TEM (HT7700 Exalens, HITACHI Ltd., JEOL Ltd., Japan) operated at 80 kV, using negative staining. Samples of compounds 1-11 (1:2 dilution of samples prepared for DLS analysis) were applied to glow-discharged carbon-coated copper 200-mesh grids (Ted Pella) and negative-stained with 2% phosphotungstic acid.

Data set [7] concerns TC-1 tumour cells. The experiment in a line: In vivo tumour treatment experiments.
A short description of data set [8]: Characterisation of nanoliposomes by DLS, Example 2. Type of data set: physicochemical. As to the method:
The particle size, zeta potential and polydispersity of vaccine candidates were measured by dynamic light scattering (DLS) using zetasizer (Nano ZX, Marvern, England). The particle morphology of vaccine candidates was examined using transmission electron microscope (TEM) (HT7700 Exalens, HITACHI Ltd., Japan) after vacuum-drying. Briefly, the sample were diluted in pure distilled water (1:100) and dropped directly on a glow-discharged carbon coated copper grid and then stained with 2% uranyl acetate.

Data set [9] deals with E749-57 (RAHYNIVTF) peptide-specific CD8+ T-cell response. Kind of data set: IFN-gamma ELISPOT assay. The class given is in vivo, C57BL/6 mice. The conditions noted are these: splenocytes ten days after immunisation, restimulated with E7 peptide. How it is done:
The mice received single dose of vaccine.
ELISPOT plates were coated with 5 μg mL-1 IFN-g capture antibody (clone) in PBS at 4° C. overnight. The plates were then blocked with RPM/20% FCs at room temperature for 3 hours. Splenocytes from C57/BL/6 mice were harvested from the spleens of naïve and immunised mice. The red blood cells were depleted using red blood cell lysing buffer (0.155 M ammonium chloride in 0.01 M Tris-HCl buffer, Sigma). Splenocytes were then resuspended in RPMI (sigma) supplemented with 20% FACs (100 UmL-1 penicillin and 100 μg mL-1 streptomycin and 50 μM b-mercaptoethanol. The cells were plated at 5×10^5 cells per well in triplicate on ELISPOT plates. E7 peptide (10 μg mL-1) was added alongside 10 ng mL-1 rhIL-2 to a final volume of 200 μL per well. Plates were incubated for 8 hours at 37 C, washed and biotinylated IFN-g detection antibody in 1% BSA added at room temperature, plates were washed again and bound cytokine was visualised with 3-amino-9ethylcarbozole. Spots were counted with an ELISPOT reader.

Where “and” joins values, the source holds several entries; their conditions need not be identical. Equal entries are not always repeated. Entries after “also recorded” stand apart in the source; their conditions may differ. No end group written: not given here.

“AKFVAAWTLKAAAQAEDKVKQSREAKKQVEKALKQLEDKVQ [Compound 1]”: in data set [1], the “p145-specific serum IgG antibodies” value is on record as “less efficient or completely unable to recognize p145”.
With “Ac-(Leu)15-PADRE-K-J8 (Ac-LLLLLLLLLLLLLLLAKFVAAWTLKAAAKQAEDKVKQSREAKKQVEKALKQLEDKVQ) [Compound 3]”, the “J8-specific serum IgG antibody titers” value in data set [2] was “significant immunoglobulin G (IgG) titers after the primary immunization; also recorded: higher antibody titers than the previously identified lead vaccine candidate (2)”.
As to AIHADQLTPTWRVYSTG [Compound B1], the “antibody titers against the epitope itself” value in [3] was “did not generate significant antibody titers against itself”. The “anti-RBD IgG” value in data set [4] is “did not generate anti-RBD IgG”.
For the substance “Ac-(Phe-Leu-Ala)5-PADRE-J8 (Ac-FLAFLAFLAFLAFLAAKFVAAWTLKAAAQAEDKVKQSREAKKQVEKALKQLEDKVQ) [Compound 11]”, in data set [5], the “Polydispersity index (PDI)” value stood at 0.44 ± 0.02 and the “Particle size (nm) DLS” value is on record as 255 ± 9 nm. Also, in data set [6], the “Particle size (nm) TEM” value is 10-20 nm NP and CLANs.
Turning to “Ac-(Ser)15-PADRE-J8 (Ac-SSSSSSSSSSSSSSSAKFVAAWTLKAAAQAEDKVKQSREAKKQVEKALKQLEDKVQ) [Compound 10]”, in data set [5], the “Polydispersity index (PDI)” value turned out to be 0.31 ± 0.02 and the “Particle size (nm) DLS” value was 240 ± 9 nm. In addition, the “Particle size (nm) TEM” value in [6] was 10-90 nm NP and CLANs.
Consider LLLLLLLLLLQAEPDRAHYNIVTF [Leu-8Qm], for which the “survival of tumour-bearing mice” value in data set [7] (single dose 100 μg on day 7 after TC-1 inoculation) is listed as “increased survival rate of tumour infected mice”. Further, the “day by which tumours of all mice exceeded 1 cm^3” value in data set [7] (single dose on day 7 after TC-1 inoculation) turned out to be 57 days. Besides, in [8] (DLS), the PDI is 0.6 and 0.6 ± 0.1; the Size is reported as 4000 ± 150 nm. Also, the Charge in [8] (zeta potential) was −10 mV and −10 ± 5 mV. Moreover, in [9], the “IFN-gamma production (ELISPOT)” value is reported as “significantly produced IFN levels”.

Values taken from patent US20230090311A1, “SELF-ASSEMBLING, SELF-A[…] FOR […] OF VACCINES” (THE UNIVERSITY OF QUEENSLAND, priority 2020, published 2023).
